Earlier results on 1 substance are cited in PMC8771847.

In general, Kd refers to the equilibrium constant for the complex coming apart.

The data set addresses Piezo1 (Mus musculus) (UniProt E2JF22).
Chain of UniProt E2JF22 (E2JF22 whole entry): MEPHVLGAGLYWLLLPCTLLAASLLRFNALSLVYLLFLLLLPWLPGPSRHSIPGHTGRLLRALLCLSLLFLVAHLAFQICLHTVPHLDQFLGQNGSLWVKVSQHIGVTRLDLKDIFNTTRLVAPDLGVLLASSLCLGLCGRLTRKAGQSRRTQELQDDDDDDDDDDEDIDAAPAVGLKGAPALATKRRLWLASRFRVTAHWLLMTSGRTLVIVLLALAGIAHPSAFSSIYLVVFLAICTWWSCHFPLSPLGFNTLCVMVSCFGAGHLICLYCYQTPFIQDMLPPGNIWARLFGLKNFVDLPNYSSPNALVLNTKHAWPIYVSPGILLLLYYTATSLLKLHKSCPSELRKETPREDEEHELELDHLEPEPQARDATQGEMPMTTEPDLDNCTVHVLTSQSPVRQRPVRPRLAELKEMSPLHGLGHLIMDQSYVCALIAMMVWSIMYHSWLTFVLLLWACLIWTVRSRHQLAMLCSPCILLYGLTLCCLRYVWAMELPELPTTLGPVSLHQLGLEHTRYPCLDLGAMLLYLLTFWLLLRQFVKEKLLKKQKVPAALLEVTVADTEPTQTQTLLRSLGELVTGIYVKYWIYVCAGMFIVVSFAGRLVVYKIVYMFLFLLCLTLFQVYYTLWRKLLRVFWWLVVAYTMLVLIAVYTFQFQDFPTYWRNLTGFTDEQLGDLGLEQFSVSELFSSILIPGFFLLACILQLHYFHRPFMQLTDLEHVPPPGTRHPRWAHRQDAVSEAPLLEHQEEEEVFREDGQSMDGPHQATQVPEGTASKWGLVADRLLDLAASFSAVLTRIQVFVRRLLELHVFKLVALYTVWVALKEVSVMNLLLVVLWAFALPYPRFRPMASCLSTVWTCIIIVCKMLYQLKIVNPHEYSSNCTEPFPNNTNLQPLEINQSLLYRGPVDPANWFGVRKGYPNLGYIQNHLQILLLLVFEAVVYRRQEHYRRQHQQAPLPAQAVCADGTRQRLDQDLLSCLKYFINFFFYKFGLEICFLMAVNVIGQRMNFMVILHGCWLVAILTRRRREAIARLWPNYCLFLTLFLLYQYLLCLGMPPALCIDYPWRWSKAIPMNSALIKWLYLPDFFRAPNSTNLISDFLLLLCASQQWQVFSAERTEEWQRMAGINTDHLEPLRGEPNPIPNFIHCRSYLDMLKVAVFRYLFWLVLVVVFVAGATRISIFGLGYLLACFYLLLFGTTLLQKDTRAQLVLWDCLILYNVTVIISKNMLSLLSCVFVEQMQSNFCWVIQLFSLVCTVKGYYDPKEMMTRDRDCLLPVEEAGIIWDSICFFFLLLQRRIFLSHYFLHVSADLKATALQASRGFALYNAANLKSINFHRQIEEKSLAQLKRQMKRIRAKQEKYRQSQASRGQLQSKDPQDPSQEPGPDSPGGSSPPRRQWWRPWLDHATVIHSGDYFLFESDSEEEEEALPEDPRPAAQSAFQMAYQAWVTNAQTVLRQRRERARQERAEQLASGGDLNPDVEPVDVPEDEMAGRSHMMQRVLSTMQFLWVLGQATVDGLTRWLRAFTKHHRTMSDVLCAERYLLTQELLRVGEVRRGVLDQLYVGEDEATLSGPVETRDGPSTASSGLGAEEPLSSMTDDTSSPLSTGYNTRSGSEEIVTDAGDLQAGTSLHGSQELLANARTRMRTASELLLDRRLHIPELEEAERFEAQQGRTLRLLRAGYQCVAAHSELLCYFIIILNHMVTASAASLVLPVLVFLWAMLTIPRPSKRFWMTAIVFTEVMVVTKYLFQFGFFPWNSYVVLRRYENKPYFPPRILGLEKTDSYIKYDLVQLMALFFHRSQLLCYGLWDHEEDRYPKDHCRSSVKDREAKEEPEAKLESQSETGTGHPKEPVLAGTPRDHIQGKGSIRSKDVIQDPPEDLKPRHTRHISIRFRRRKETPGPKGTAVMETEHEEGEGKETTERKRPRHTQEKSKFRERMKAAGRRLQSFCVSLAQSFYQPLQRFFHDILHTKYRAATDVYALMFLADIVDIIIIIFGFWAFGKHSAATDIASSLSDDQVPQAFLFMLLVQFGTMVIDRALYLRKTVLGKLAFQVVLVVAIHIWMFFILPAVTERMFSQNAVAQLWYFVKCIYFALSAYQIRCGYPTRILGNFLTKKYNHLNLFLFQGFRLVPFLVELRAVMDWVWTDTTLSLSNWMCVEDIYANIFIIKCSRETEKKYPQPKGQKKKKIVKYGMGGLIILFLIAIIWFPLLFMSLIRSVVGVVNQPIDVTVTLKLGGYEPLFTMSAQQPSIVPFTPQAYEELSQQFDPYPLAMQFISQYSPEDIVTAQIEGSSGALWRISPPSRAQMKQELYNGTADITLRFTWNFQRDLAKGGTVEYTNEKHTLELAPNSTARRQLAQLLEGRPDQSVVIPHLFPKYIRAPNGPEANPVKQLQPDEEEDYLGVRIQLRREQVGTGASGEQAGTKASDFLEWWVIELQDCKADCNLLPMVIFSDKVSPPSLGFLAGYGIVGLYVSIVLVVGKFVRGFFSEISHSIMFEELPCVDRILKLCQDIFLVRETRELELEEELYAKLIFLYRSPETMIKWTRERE

GsMTx-4 (from UniProt Q7YT39): the Kd is 2000 nM.
